What was measured:
His::Svp = molecular target: T1, His::Svp (Drosophila melanogaster, UniProt P16375 1-543); test: EMSA; with or without poly(dI-dC); out-competed by WT at 20:1; Ap: 20 mM HEPES pH 7.8, 50 mM KCl, 10% glycerol, 0.25 mM EDTA, 0.1 mg/ml BSA, 1 mM DTT, 21 C; Mad: 25 mM Tris pH 7.5, 35 mM KCl, 80 mM NaCl, 5 mM MgCl2, 3.5 mM; conditions: protein: recombinant; tags: N-term His; GST removed with PreScission protease; chain copies: 2; label: IRDye 700
T1 sequence: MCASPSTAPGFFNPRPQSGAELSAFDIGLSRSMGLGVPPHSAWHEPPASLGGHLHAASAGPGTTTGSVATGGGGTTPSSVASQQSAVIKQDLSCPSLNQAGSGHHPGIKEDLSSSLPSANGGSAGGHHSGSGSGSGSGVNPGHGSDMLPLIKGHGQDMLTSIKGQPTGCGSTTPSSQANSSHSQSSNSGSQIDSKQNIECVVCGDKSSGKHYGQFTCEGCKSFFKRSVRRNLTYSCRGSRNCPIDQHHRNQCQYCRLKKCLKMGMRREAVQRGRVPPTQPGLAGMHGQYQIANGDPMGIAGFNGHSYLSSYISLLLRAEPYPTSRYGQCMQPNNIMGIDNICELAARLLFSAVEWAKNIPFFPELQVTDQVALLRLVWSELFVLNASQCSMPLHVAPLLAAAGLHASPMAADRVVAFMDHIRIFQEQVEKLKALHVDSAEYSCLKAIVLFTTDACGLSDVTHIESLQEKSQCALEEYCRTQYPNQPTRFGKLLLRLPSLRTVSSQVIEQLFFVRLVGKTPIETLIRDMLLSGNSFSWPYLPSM

GST-MH1-Mad (GST-MadN) [1] = molecular target: T2, GST-MH1-Mad (GST-MadN) (Drosophila melanogaster, UniProt P42003 26-150); test: EMSA; 1 ug poly(dI-dC), 5 mM MgCl2; out-competed by unlabeled WT; Ap: 20 mM HEPES pH 7.8, 50 mM KCl, 10% glycerol, 0.25 mM EDTA, 0.1 mg/ml BSA, 1 mM DTT, 21 C; Mad: 25 mM Tris pH 7.5, 35 mM KCl, 80 mM NaCl, 5 mM MgCl2, 3.5 mM; conditions: protein: recombinant; tags: GST (pGEX6p1); label: IRDye 700
T2 sequence (P42003 26-150): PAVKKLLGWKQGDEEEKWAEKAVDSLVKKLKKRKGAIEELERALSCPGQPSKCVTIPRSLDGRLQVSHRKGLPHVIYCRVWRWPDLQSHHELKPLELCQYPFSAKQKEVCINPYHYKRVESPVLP

GST-MH1-Mad (GST-MadN) [2] = molecular target: T2, GST-MH1-Mad (GST-MadN); test: competition; vs labeled BMP-RE; Ap: 20 mM HEPES pH 7.8, 50 mM KCl, 10% glycerol, 0.25 mM EDTA, 0.1 mg/ml BSA, 1 mM DTT, 21 C; Mad: 25 mM Tris pH 7.5, 35 mM KCl, 80 mM NaCl, 5 mM MgCl2, 3.5 mM; conditions: protein: recombinant; tags: GST (pGEX6p1); label: unlabeled

B1: DR1 Svp probe (dsDNA)
DNA 1: AGCTCTCAGGTCAGAGGTCAGAGAGCT
DNA 2: AGCTCTCTGACCTCTGACCTGAGAGCT
Does B1 bind (His::Svp)?
Result: binds

B2: BMP-RE probe (dsDNA)
DNA 1: GCCAGAGGCGCCACAATGTATCCCGTT
DNA 2: AACGGGATACATTGTGGCGCCTCTGGC
Does B2 bind (GST-MH1-Mad (GST-MadN) [1])?
Result: binds

B3: MutMad BMP-RE competitor (dsDNA)
DNA 1: GCCAGATAGTAGACAATGTATCCCGTT
DNA 2: AACGGGATACATTGTCTACTATCTGGC
Does B3 bind (GST-MH1-Mad (GST-MadN) [2])?
Result: no binding

From PMC4694770, “Gene Regulatory Mechanisms Underlying the Spatial and Temporal Regulation of Target-Dependent Gene Expression in Drosophila Neurons”
